Results from the DeepSol protein solubility set.

Assay: soluble on expression in E. coli; label from the status in PepcDB or PDB records

Sequence	soluble on expression in E. coli
SRAYDLVVIGAGSGGLEAGWNAASLHKKRVAVIDLQKHHGPPHYAALGGTCVNVGCVPKKLMVTGANYMDTIRESAGFGWELDRESVRPNWKALIAAKNKAVSGINDSYEGMFADTEGLTFHQGFGALQDNHTVLVRESADPNSAVLETLDTEYILLATGSWPQHLGIEGDDLCITSNEAFYLDEAPKRALCVGGGYISIEFAGIFNAYKARGGQVDLAYRGDMILRGFDSELRKQLTEQLRANGINVRTHENPAKVTKNADGTRHVVFESGAEADYDVVMLAIGRVPRSQTLQLEKAGVEVAKNGAIKVDAYSKTNVDNIYAIGDVTDRVMLTPVAINEGAAFVDTVFANKPRATDHTKVACAVFSIPPMGVCGYVEEDAAKKYDQVAVYESSFTPLMHNISGSTYKKFMVRIVTNHADGEVLGVHMLGDSSPEIIQSVAICLKMGAKISDFYNTIGVHPTSAEELCSMRTPAYFYEKGKRVEKIDSNL	soluble
GPGMSSLSNSLPLMEDVQGIRKAQKADGTATVMAIGTAHPPHIFPQDTYADVYFRATNSEHKVELKKKFDHICKKTMIGKRYFNYDEEFLKKYPNITSYDEPSLNDRQDICVPGVPALGTEAAVKAIEEWGRPKSEITHLVFCTSCGVDMPSADFQCAKLLGLHANVNKYCIYMQGCYAGGTVMRYAKDLAENNRGARVLVVCAELTIMGLRAPNETHLDNAIGISLFGDGAAALIIGSDPIIGVEKPMFEIVCTKQTVIPNTEDVIHLHLRETGMMFYLSKGSPMTISNNVEACLIDVFKSVGITPPEDWNSLFWIPHPGGRAILDQVEAKLKLRPEKFRAARTVLWDYGNMVSASVGYILDEMRRKSAAKGLETYGEGLEWGVLLGFGPGITVETILLHSLPLM	soluble
MAHHHHHHMYYIYIYIYENGSAYQKDNDNTVENKLLENLYKLELIDNYDTPLSRVSRTDKGVSARINGINLRLNIKYENVPIFEIEKKYVKELKKKLKNIHIHDIKHVSNTFDARLNCIQRTYVYFFINKNYNIEKMKKAAKLFIGEHDFSNCCKKGKNVTSNRRTVLKFDIRNIDKHFYYFKIKGISFLYNQIRHMVAILFLVGKGLLDNNDVNNILNNTSTKRKNYHIADENGLLLYSFKFNDYKYNNHVNNKIFLNVMNKYIQSTMLLVSLCHPLKLENKNEDFFENLDDEDIKNDVIHNNMIKEINKK	not soluble
MGSDKIHHHHHHMSFDLALFSSKLRRCREQFEKSLVEVTTATGIPENILAALENGERQPTGDEVLIFADYYLCDYQFFISNERVASFDQTETLFRRYGEEFSKEDRLAVQEFLFLCECEDFLLKLVQTHIYKPFSFIKRGNYYIGHGKEAAKALRKHLGYASNAVRMDVYEDFRSLGFHIFRRQLGNSNISGLFIKHPTAGKCILVNYSEDIYRQRFTAAHESAHGILDDEQEFVISLKTDKKNLVEVRANNFASDYLMPPEFLQKIPDSQTWTPEKAIEWANKLKVSTEALANALKSANFISENVEIQIKAVRVPRDLKVDPELPESLSFGSRQRREKLLKRGLSNFYVGLCFDVYEQGFISAGRVAEMLLVSKYELTEIASIYGRTIRYGD	not soluble
MKNKLLFMMLTILGAPGIAAAAGYDLANSEYNFAVNELSKSSFNQAAIIGQAGTNNSAQLRQGGSKLLAVVAQEGSSNRAKIDQTGDYNLAYIDQAGSANDASISQGAYGNTAMIIQKGSGNKANITQYGTQKTAIVVQRQSQMAIRVTQR	not soluble
MGSDKIHHHHHHMPPFILNSQNVFDYLSSLNLCTLEEGESSKIELKPAKNFNLLITFPEGRKLLVKQERHNLEGKTTGEFVLEWRIHDFVSRFPELNHIRSYLSEAIYFNWENSIIIFNYLDNYRDLMDFYVKENLNLFPTQLANAVGTTLALIHRTSFNCEEYRDFFQNPGESKSNPKTPHLNRGLDRLTPEIFGKVPADGLRFFALYQRYDSLGQAIAQLINSFTPCCLTHNDLKLNNILVSLDWEDIGDENIVRLIDWERGSWGDPANDLGTLIASYLQIWLYSMVTGKSIAIEESLRLAATPLYVLQPSLRELVIAYLTHFPEILEHHPDFLQRVMQFCGLALITAIQAQLQYEKTFGNVGICMLQVAKSLLCRPEASVQTIFGVQLSDLSPVSLSQV	not soluble
MHQVVCATTNPAKIQAILQAFHEIFGEGSCHIASVAVESGVPEQPFGSEETRAGARNRVANARRLLPEADFWVAIEAGIDGDSTFSWVVIENASQRGEARSATLPLPAVILEKVREGEALGPVMSRYTGIDEIGRKEGAIGVFTAGKLTRASVYHQAVILALSPFHNAVY	soluble
MSLYPAEHKEVMVQLMNQGNRSSLMQAWIDDGDTSLPPEKIQVPFMLTPPVAKIGANSGQQVKIKIMPNKLPTNKESIFYLNVLDIPPNSPEQEGKNALKFAMQNRIKLFYRPAGIAPVNKVTFKKLLVNRSGNGLVIKNDSANWVTISDVKANNVKVNYETIMIAPLESQSVNVKSNNANNWHLTIIDDHGNYISDKEGHHHHHH	not soluble
MGSDKIHHHHHHMDYKELLEVLRKDLNFKKVDLYQEKSNKTRYREIELGEKSPTIEELISFTDTLGIRLSEFLYRGDITPLAASYYGKRKIEVASLINNFPELEKQFPEIYKDRFKNLQCYTLFTLCLIISKSLNNSLYTFKNKDIRELKNFYKNREVILGADYAILSHLYMAVPEYSNELDFLTEKLFPINQSYGDIHDHAVQLCIKNAVTVFLEKKDFEKADYFLEQFDIVRKVPSFILDGTINLEMIYLKHLRNFLKKRNMEEYLKAVNIVNLFSQLGENDTYKELVKEVTEIARKENFEVPSSLNIIADTFEGVGYLKSDK	not soluble
MEYSHLIPEASHAQTSFGLLYMWANDYEYGVFIDDDTLPHEDADFFGTHMSNLAFEGEIETVSSDEQWVNVLYQNEDEHGLYPRGYPYAAMDETVATEATQVNDVVASQGLWTNVPDLDAVRILMDGDLQGQAQTRTSGADFGDDFVAAEGQYLTVCSMNLAFRREVIPAFYQLPMDDNEWDVGRFDDIWSGVFLKRACDVLGKQIYNGDPLCEHNKAPRSTFSDLTNEVHGLELNEHVWEIVDEAGADADSYAEVFDAIATAMADGDFSDWENGAFLNYCGEFMLDWLECLDELDAAATELEHHHHHH	soluble
MNASDFRRRGKEMVDYMADYLEGIEGRQVYPDVQPGYLRPLIPATAPQEPDTFEDILQDVEKIIMPGVTHWHSPYFFAYFPTASSYPAMLADMLCGAIGCIGFSWAASPACTELETVMMDWLGKMLQLPEAFLAGEAGEGGGVIQGSASEATLVALLAARTKVVRRLQAASPGLTQGAVLEKLVAYASDQAHSSVERAGLIGGVKLKAIPSDGKFAMRASALQEALERDKAAGLIPFFVVATLGTTSCCSFDNLLEVGPICHEEDIWLHVDAAYAGSAFICPEFRHLLNGVEFADSFNFNPHKWLLVNFDCSAMWVKRRTDLTGAFKLDPVYLKHSHQGSGLITDYRHWQLPLGRRFRSLKMWFVFRMYGVKGLQAYIRKHVQLSHEFEAFVLQDPRFEVCAEVTLGLVCFRLKGSDGLNEALLERINSARKIHLVPCRLRGQFVLRFAICSRKVESGHVRLAWEHIRGLAAELLAAEEGKAEIKS	soluble
MNKTILALDTATEACSVALLHNGNITTLDELSPRNHTQRILPMVDELLSQANISIKQVDVLAFGRGPGSFTGVRVGVSVAQGLALGANLPVVAISNLLAMAQAAYQQLRANNVIALIDARMNEVYFAQYQRIGEHWHTIVEEQVCSPETAIAQMKINDNSVVVGTGWAAYPQFYVAKLPLSVSDISLPSAKDMLELALKAVENGELQTALDIEPIYLRNEVTWQKLPHKRLEHHHHHH	soluble
MSLEKAARHKQEVDTVQDKKVVNITGQGSTSRFFLPTALIRLRDASAQSIRTVLNQFFDRADDALFELADRAGTDQEQTRYFDAMRELRLRRKSMTVAVLHHVGQAFNDIGKFRPQSTVSSLDSVDEGFLSLLDHAELEQQVAIDNMVTKLRYQYSEALRHLSLRVRHLLPGVTLEDDQMPLCPEVLCGGLAAASKDLDVDIKARLIVLKLFDQLLVTSLGEVYHGANVTLIKEGVLPDSKAVRPVQTARSRQGAPVPPPSVVYREADWYGVGQPQAEVSAATFSQLSALLRQGQPAYGDGQAPASGGQWLQTDALLARLSQVQTAFGNDPGAPLVSLSQQLQPVLQNSSGQSLRPGQVDNDVINLVAMLFEFILDDRHLHSVMKSLLGRLQIPILKVALTDKNFFNRGGHPARKLLNEMALAATGWTEKRPGQRDPLLDKISAVVNRILAEFSTDVSLFNELLDDFNQFSDLDQRRSDLVEQRLRDAEEGRARHEQATADTKELLHEAMDGRLLPEPVQDMLNGPWSHYLHWLALHESTDSEAWQRAKTLTEQLIWTIDPVPLTATTHELLQQAIPQVIEQLRGALEGVAWDGLSVEMVVRDLELVHLDVFQRLVIAPSEAAGNDHAQIDDSQEAPAVRADAVPSDTTNTSADVSHPAPALPVAADDPKEAVVARVPEPTRAQPVVAEEWLAKADGLRVGCWLELNRDGSQIRCKLAAFIRAVDKYIFVNRSGAKVAEYRRNELAEMMAQGHIEILDDGLIFDRALESIIDNLRTSRREGHHHHHH	not soluble
MGSSHHHHHHSSGLVPRGSHMNTNSNTMVMNDANQAQITATFTKKILAHLDDPDSNKLAQFVQLFNPNNCRIIFNATPFAQATVFLQMWQNQVVQTQHALTGVDYHAIPGSGTLICNVNCKVRFDESGRDKMGQDATVPIQPNNTGNRNRPNDMNKPRPLWGPYFGISLQLIIDDRIFRNDFNGVISGFNYNMVYKPEDSLLKI	soluble
MEKLVEWENCVSVIEAAILKHKYKQKVNKNIPSLLRVQAHIRKKMVAQ	soluble
MSLSKPLYVFDLDDTLIDGDCAMIWNAFLAEKGIATERNFVEEDRRRMALYAQGKMDMAEYIAFAMQPLAQVPSTTVQDWVEECVSRWIVPKQFAQARELIAQLKQQGNTCLIISASVSFLVKTVAQRFGIEHALGIDLVSQNGCYSGNIEGVASYREGKVLRLQQWLAEQNETYHDVHFYTDSINDLPLCQHADFAYVVNPCPRLKAQAEQHGWPILSWAVEGHHHHHH	soluble
MGSDKIHHHHHHMAATFKMVGVIRFSLLTPTFNADRYPDLEAAAAAIFAPDRMALRLHLFETLCLPSLVRQSDAAFHLVVATSDRLPAVILQHLQALLAPHDHMQLIQFAPENHYQILKEAYRAVPQQGESHRILFRLDDDDALDRHYVARCKRLAAGLVPLQTEAVSPIALAFNRGYYLIREEGQPPVVMDSCERAPLSAGTALVQPIAARGNPYRYNHRKFAQHYTLYSDISVPSFVRTVHGDNHSTPAMMGLTARQSDAEMDADLQRHFDLSLSDLKAI	not soluble
MAHHHHHHMSSCKDSLSLMAMWGSIARFDPKHERSFEGPEKRLEVIMRVVDGTHVSGLLAHDDDVWQKVIDAICAHIVSREFNEYIRSYVLSESSLFVMKDRVILITCGTITLLNCVPLICEAVSTVCGEVEWVSFMHKNYSFPWEQKGPHLSMAEEFKTLRSHFPSGQPFIFGPIDSDHYFLYFHSDVVQPSCSDDAQLSMTMYGLDRNQTKHWYSDKMLPTGPETAVIREATGLSEVVDDSWILHDLQYEPCGYSINAIRGSEYQTIHITPEEHCSFASYETNTCALNYSKCICGVLRVFDPERFSVIVFIDPDSAVGKSYHSGGTIGVEPEYYPNYEAHHRTVNEYTPGHWVLKVNYVKRAVGTVGTSAASGAKE	not soluble
MKNAETPVFKLVLFGPESSLGNALMVELLSRQHEVIAVVDDLNRHSPRPGLHFKIGGLGDAHQAEQGAAGGSAVIALLPALAPGDLPGQARLSEALVAGLARTTIRRLLLVGDFDVLDEPGKYSEVERECVAQVVDGLQRSALHWTLINAPQELAGLGMEHFRSTEGTLEPGLAEPLRRLSRIAAGMVDMLELDLHRSEHLNFVV	not soluble
